Measured values as given in US9988424 (DUKE UNIVERSITY, dated 2018).
Numbering of substitutions follows the chain as printed.

Tests used:
AE.A244 gp120 delta 11 = AE.A244 gp120 delta 11 (HIV-1)
B.62357 gp140C = molecular target: T1, B.62357 gp140C; experiment: ELISA, OD405 at 10 ug/ml
T1 construct: also called B.62357 140C

AE.con gp140CF = experiment: ELISA, OD405 at 10 ug/ml
Con 6 gp120 = experiment: ELISA, OD405 at 10 ug/ml
D.9009SA V1/V2 tags = experiment: ELISA, OD405 at 10 ug/ml
B.Case A2 V1/V2 tags = experiment: ELISA, OD405 at 10 ug/ml
B.63521_V1/V2 tags = experiment: ELISA, OD405 at 10 ug/ml
B.040 gp140C = experiment: ELISA, OD405 at 10 ug/ml
B.con gp140CF = experiment: ELISA, OD405 at 10 ug/ml
A.9004SS V1/V2 tags = molecular target: T2, A.9004SS V1/V2 tags; experiment: ELISA, OD405 at 10 ug/ml
T2 V1V2 tags construct: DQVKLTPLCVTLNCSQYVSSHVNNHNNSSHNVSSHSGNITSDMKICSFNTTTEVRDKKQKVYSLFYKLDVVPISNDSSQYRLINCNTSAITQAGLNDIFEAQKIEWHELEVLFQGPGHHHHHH

G.con gp140CF = experiment: ELISA, OD405 at 10 ug/ml
C.1086 gp140 = molecular target: T3, C.1086 gp140; experiment: ELISA, OD405 at 10 ug/ml
T3 construct: also called C.1086gp140C

gp70 B.CaseA2 V1/V2 = molecular target: T4, gp70 B.CaseA2 V1/V2 (HIV-1 V1V2 on murine leukemia virus gp70); experiment: SPR (BIAcore), mAb captured on anti-Fc surface, V1V2 protein injected as analyte, Synagis surface subtracted, global 1:1 Langmuir fit
T4 construct: also called B.gp70CaseA2 V1/V2; gp70 B.CaseAV1V2
T4 chain: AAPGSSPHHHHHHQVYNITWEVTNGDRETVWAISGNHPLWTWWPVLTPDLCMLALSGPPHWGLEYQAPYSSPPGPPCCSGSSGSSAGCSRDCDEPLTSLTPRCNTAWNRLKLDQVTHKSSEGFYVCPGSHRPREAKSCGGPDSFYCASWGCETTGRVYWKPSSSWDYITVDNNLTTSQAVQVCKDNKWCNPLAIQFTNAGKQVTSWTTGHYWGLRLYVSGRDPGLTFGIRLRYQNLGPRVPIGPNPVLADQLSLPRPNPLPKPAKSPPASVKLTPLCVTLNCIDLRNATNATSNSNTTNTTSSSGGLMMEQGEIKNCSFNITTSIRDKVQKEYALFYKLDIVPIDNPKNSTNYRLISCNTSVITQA

B1: CH59 (antibody, V domains shown)
VH: EVQLVESGGGLVQPGRSLRLSCAASGFTFDDGAMHWVRQAPGKGLEWVSGISWNSNIIAYADSVKGRFTISRDNAKNSLYLEMNSLRVEDTALYYCAKDSPRGELPLNYWGQGTLVTVSS
VL: SYELTQPPSVSVSPGQTARITCSGDALPKNYAYWYQQKSGQAPVLVIYEDSKRPSGIPERFSGSSSGTMATLTISGAQVEDEADYYCYSTDSSGNHRVFGGGTKLTVL
notes: also called mAb CH59
koff (AE.A244 gp120 delta 11): 0.00013 s⁻¹
kon (AE.A244 gp120 delta 11): 58300 M⁻¹ s⁻¹

B2: CH59 reverted unmutated ancestor antibody (antibody, V domains shown)
VH: B1 VH with G32Y, N56G, I57S, A59G, E82Q, V88A, L107F, N108D
VL: B1 VL with N30K
notes: also called CH59 RUA; CH59_RUA
binding result (B.62357 gp140C): no binding (tested: 10 ug/ml)
binding result (AE.con gp140CF): no binding (tested: 10 ug/ml)
binding result (Con 6 gp120): no binding (tested: 10 ug/ml)
binding result (D.9009SA V1/V2 tags): no binding (tested: 10 ug/ml)
binding result (B.Case A2 V1/V2 tags): no binding (tested: 10 ug/ml)
binding result (B.63521_V1/V2 tags): no binding (tested: 10 ug/ml)
binding result (B.040 gp140C): no binding (tested: 10 ug/ml)
binding result (B.con gp140CF): no binding (tested: 10 ug/ml)
binding result (A.9004SS V1/V2 tags): no binding (tested: 10 ug/ml)
binding result (G.con gp140CF): no binding (tested: 10 ug/ml)
binding result (C.1086 gp140): no binding (tested: 10 ug/ml)

B3: 697D (antibody, V domains shown)
VH: QVQLVQSGAEVKKPGSSVKVSCKASGGNFNTYTISWVRQAPGQGLEWMGRIIPIFGIVNPAQKFPGRVTINVDKSTNTAYMELSSLRSEDTAVYYCATSGVGLHFGYFDYWGQGTQVTVSS
VL: QSVLTQPPSVSGAPGQRVTISCTGSSSNIGAHYDVHWYQQLPGTAPKLLIYGNSNRPSGVPDRFSGSKSGTSASLAITGLQAEDEADYYCQSYDSSLSGYVFGTGTKVTVL
notes: also called mAb 697D; V2 conformational mAb 697D
Kd (gp70 B.CaseA2 V1/V2): 36.5 nM
koff (gp70 B.CaseA2 V1/V2): 0.00038 s⁻¹
kon (gp70 B.CaseA2 V1/V2): 10000 M⁻¹ s⁻¹
